Experimental data as given in patent US12144869B2, “Anti-ROR1 antibody conjugates, compositions comprising anti ROR1 antibody conjugates, and methods of making and using anti-ROR1 antibody conjugates” (Sutro Biopharma, Inc., priority 2022, dated 2024).
Residue numbers refer to the chain shown, from its start. Read-outs that look alike come from different tables or passages of the source.

B1: SRP2196-A11 (antibody, V domains shown)
VH: EVQLVESGGGLVQPGGSLRLSCAASGFNITGYYIHWVRQAPGKGLEWVGQISPNSGTTYDADSVKGRFTISADTSKNTAYLQMNSLRAEDTAVYYCARDSRRYVRGWDYWGQGTLVTVSS
VL: QAVVTQESALTTSPGETVTLTCRSSTGAVTTSNYANWVQEKPDHLFTGLIGGTNKRAPGVPARFSGSLIGDKAALTITGAQTEDEAIYFCALWYSNLWVFGGGTKLTVL
B2: SRP2196-A03 (antibody, V domains shown)
VH: B1 VH with G31Q, Y33H, Q50Y, T57S, Y59H, D60E
VL: B1 VL
B3: SRP2196-C03 (antibody, V domains shown)
VH: B1 VH with T57S, D60S, N84S, R105L, G106S
VL: B1 VL
B4: SRP2196-B08 (antibody, V domains shown)
VH: B1 VH with T57Y, D60L
VL: B1 VL
B5: SRP2196-B02 (antibody, V domains shown)
VH: B1 VH with G31Q, Q50Y, T57Q, G106S
VL: B1 VL
B6: SRP2196-B06 (antibody, V domains shown)
VH: B1 VH with T57S, D60S, R105L, G106S
VL: B1 VL
B7: SRP2196-C01 (antibody, V domains shown)
VH: B1 VH with T30I, Q50S, S52T, N54L, T57A, Y59S, D60K, V104I, G106S
VL: B1 VL
B8: SRP2196-B10 (antibody, V domains shown)
VH: B1 VH with Q50S, S52T, N54L, T57A, Y59S, D60K, V104I, G106S
VL: B1 VL
B9: SRP2196-C04 (antibody, V domains shown)
VH: B1 VH with Q50F, S52A, N54L, T57S, Y59H, D60N, D99E, R105N, G106P
VL: B1 VL
B10: SRP2196-C02 (antibody, V domains shown)
VH: B1 VH with Y33H, Q50F, T57W, D60S, G106P, W107F
VL: B1 VL
B11: SRP2196-B04 (antibody, V domains shown)
VH: B1 VH with G31E, Q50Y, T57A, D60Q
VL: B1 VL

How the values were obtained:
[1] = system: ROR1 negative MCF7 cells; experiment: In vitro cell killing of ROR1 ADCs on MCF7; format: cell-based; conditions: for EC50: read-out: MCF-7 EC50
Procedure: (§1) Anti-ROR1 antibody was conjugated to different linker-warheads described herein at different DARs and the cell killing activity of the ADCs were evaluated on ROR1 positive Ntera-2 cell and ROR1 negative MCF7 cells.
(§2) Ntera-2 or MCF7 cell at 625 cells/25 μL were seeded in a 384-well flat bottom white polystyrene plate one day before the assay start. ADCs were formulated at 2× starting concentration. Filter sterilized samples were serial diluted (1:3) under sterile conditions and added onto cells in triplicates. Plates were cultured at 37° C. in a CO2 incubator for 120 hours. For cell viability measurement, 30 microliter of Cell Titer-Glo® reagent (Promega Corp, Madison, WI) was added into each well, and plates processed as per product instructions. Relative luminescence was measured on an ENVISION® plate reader (Perkin-Elmer; Waltham, MA). Relative luminescence readings were converted to % viability using untreated cells as controls. Data was fitted with non-linear regression analysis, using log (inhibitor) vs. response, variable slope, 4-parameter fit equation using GraphPad Prism.
(§3) To evaluate if the cell killing activity of anti-ROR1 ADCs is dependent on antibody binding to ROR1 expressed on cell surface, the same linker-warheads (LP3, LP4) were conjugated to an anti-GFP antibody and the cell killing of the anti-ROR1 and anti-GFP ADCs were evaluated in cell killing assays on ROR1 positive Ntera-2 cell and ROR1 negative MCF7 cells.

[2] = system: ROR1 positive Ntera-2 cell; experiment: In vitro cell killing of ROR1 ADCs on Ntera-2; format: cell-based; conditions: for EC50: read-out: NTERA-2 EC50
Procedure: as §1, §2
as §3, with “cells. […]” for “cells.”

[3] = Differential scanning fluorimetry (protein thermal shift; TM1/TM2); format: physicochemical; conditions: Table 11; melting temperature of the Fab domain
Procedure: A protein thermal shift assay was carried out by mixing the protein to be assayed with an environmentally sensitive dye (SYPRO Orange, Life Technologies Cat #S-6650) in a phosphate buffered solution (PBS), and monitoring the fluorescence of the mixture in real time as it underwent controlled thermal denaturation. Protein solutions between 0.2-2 mg/mL were mixed at a 1-1 volumetric ratio with a 1-500 PBS-diluted solution of SYPRO Orange (SYPRO Orange stock dye is 5000× in DMSO). 10 μL aliquots of the protein-dye mixture were dispensed in quadruplicate in a 384-well microplate (Bio-Rad Cat #MSP-3852), and the plate was sealed with an optically clear sealing film (Bio-Rad Cat #MSB-1001) and placed in a 384-well plate real-time thermocycler (Bio-Rad CFX384 Real Time System). The protein-dye mixture was heated from […], at increments of 0.1° C. per cycle (˜1.5° C. per minute), allowing 3 seconds of equilibration at each temperature before taking a fluorescence measurement. At the end of the experiment, the transition melting temperatures (TM1 and TM2) were determined using the Bio-Rad CFX manager software. TM1 represents the melting temperature of the Fc domain. TM2 represents the melting temperature of the Fab domain.
For the thermal stability of an antibody, the first melting peak (Tm1) coincides with the unfolding of the CH2 domain (FC stability), while the second melting peak (Tm2) occurs upon unfolding of the Fab domain.

[4] = biological target: T1, human ROR1-Fz (Homo sapiens, UniProt Q01973); experiment: Biacore off-rate and kinetic analysis, ROR1-Fz; format: binding; conditions: Table 11; SP34 light chain
T1 construct: Frizzled (Fz, residues 165-305); His6 (C); purchased Acro Biosystems; host or cells: HEK293
Procedure: Anti-Fc polyclonal antibodies were immobilized onto a CMS chip (GE Life Sciences) using amine coupling chemistry (from Amine Coupling Kit, GE Life Sciences). The immobilization steps were carried out at a flow rate of 25 μL/min in 1×HBS-EP+buffer (GE Life Sciences; 10× Stock diluted before use). The sensor surfaces were activated for 7 min with a mixture of NHS (0.05 M) and EDC (0.2 M). The Anti-Fc antibodies were injected over all 4 flow cells at a concentration of 25 ug/ml in 10 mM sodium acetate, pH 4.5, for 7 min. Ethanolamine (1 M, pH 8.5) was injected for 7 min to block any remaining activated groups. An average of 12,000 response units (RU) of capture antibody was immobilized on each flow cell.
Off-rate and kinetic binding experiments were performed at 25° C. using 1×HBS-EP+buffer. Test and control antibodies were injected over the anti-Fc surface at concentrations of 5-10 μg/mL for 12 seconds at a flow rate of 10 μL/min on flow cells 2, 3 and 4, followed by a buffer wash for 30 seconds at the same flow rate. Kinetic characterization of antibody samples was carried out with a range of antigen concentrations from 1-100 nM and 1 injection of 0 nM antigen (for example, 100, 50, 25, 6.25, 1.56 and 0 nM). After capturing ligand (antibody) on the anti-Fc surface, the analyte (hROR1, Fz or Kr domains, Acro Biosystems, Delaware) was bound for 180 seconds, followed by a 600 second dissociation phase at a flow rate of 50 μL/min. Between each ligand capture and analyte binding cycle, regeneration was carried out using 2 injections of 10 mM Glycine pH 2.0 for 30 seconds at 30 μL/min, followed by a 30 second buffer wash step.
The data was fit with the Biacore T200 Evaluation software, using a 1-1 Langmuir binding model. KD (affinity, nM) was determined as a ratio of the kinetic rate constants calculated from the fits of the association and dissociation phases.
For anti-CD3-LC-containing IgGs that had detectable ROR1-binding in ELISA (1944-A07 and 1987-C05 variants), those antibodies were further tested for binding by surface plasmon resonance (SPR). Binding kinetics were assessed to the ROR1-frizzled domain (hROR1-Fz) or the ROR1-extracellular domain (hROR1) for 1944-A07 and 1987-C05 variants, respectively. Briefly, anti-ROR1 antibodies were captured via anti-human Fc polyclonal antibodies immobilized to a CM5 chip, and ROR1 recombinant proteins were flowed across the surface to assess binding kinetics. hROR1 or hROR1-Fz domain (Acro Biosystems, Delaware) binding was tested at 100, 50, 25, 6.25, 1.5625 nM. The data was fit with the Biacore™ T200 Evaluation software, using a 1-1 Langmuir binding model. KD (affinity, nM) was determined as a ratio of the kinetic rate constants calculated from the fits of the association and dissociation phases.

[5] = Homo sapiens, Table 13, ROR1 negative MCF7, 120 hours
[6] = Table 13, ROR1 negative MCF7, 120 hours
[7] = NTERA2, Table 13, ROR1 positive Ntera-2, 120 hours
[8] = Table 13, ROR1 positive Ntera-2, 120 hours

T1 sequence (Q01973 165-305): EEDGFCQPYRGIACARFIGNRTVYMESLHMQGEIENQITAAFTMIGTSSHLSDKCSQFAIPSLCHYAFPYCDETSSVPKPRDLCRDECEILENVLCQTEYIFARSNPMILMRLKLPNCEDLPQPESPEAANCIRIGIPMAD

Row | Molecule | TM2 (° C.) [3] [°C] | Biacore human ROR1-Fz ka [4] [M⁻¹ s⁻¹] | Biacore human ROR1-Fz kd [4] [s⁻¹] | also measured
1 | CC[C@@]1(O)C(=O)OCc2c1cc1n(c2=O)Cc2c-1nc1cc(F)c(C)c3c1c2[C@@H](NC(=O)CN)CC3 [Gly-Exatecan] |  |  |  | EC50 [1, 5]: 169 pM; MCF-7 Span [1, 6]: 73%; EC50 [2, 7]: 6720 pM; NTERA-2 Span [2, 8]: 98%
2 | CC[C@@]1(O)C(=O)OCc2c1cc1n(c2=O)Cc2c-1nc1cc(F)c(C)c3c1c2[C@@H](NC(=O)CO)CC3 [Dxd] |  |  |  | MCF-7 Span [1, 6]: 63%; EC50 [1, 6]: 830 pM; NTERA-2 Span [2, 8]: 99%; EC50 [2, 8]: 260 pM
3 | COc1cccc2c1C(=O)c1c(O)c3c(c(O)c1C2=O)C[C@@](O)(C(=O)NCCN)C[C@@H]3O[C@H]1C[C@H]2[C@H](O[C@@H]3[C@@H](OC)OCCN32)[C@H](C)O1 [PNU-EDA] |  |  |  | EC50 [1, 5]: 300 pM; EC50 ([1]; Homo sapiens, Table 15, ROR1 negative MCF7 cells, 120 hours, Cell Titer-Glo): 250 pM; MCF-7 Span [1, 6]: 85%; MCF-7 Span (%) ([1]; Table 15, ROR1 negative MCF7 cells, 120 hours, Cell Titer-Glo): 85%; EC50 [2, 7]: 26 pM; EC50 ([2]; NTERA2, Table 15, ROR1 positive Ntera-2 cells, 120 hours, Cell Titer-Glo): 27 pM; NTERA-2 Span [2, 8]: 99%; NTERA-2 Span (%) ([2]; Table 15, ROR1 positive Ntera-2 cells, 120 hours, Cell Titer-Glo): 98%
4 | B1 | 73 | 191000 | 0.000792 | 
5 | B2 | 70 | 169000 | 0.000275 | 
6 | B3 | 69 | 143000 | 0.000461 | 
7 | B4 | 75 | 156000 | 0.000488 | 
8 | B5 | 69 | 163000 | 0.000227 | 
9 | B6 | 70 | 142000 | 0.000423 | 
10 | B7 | 70 | 125000 | 0.000457 | 
11 | B8 | 70 | 128000 | 0.000334 | 
12 | B9 | 70 | 131000 | 0.000704 | 
13 | B10 | 67 | 119000 | 0.00036 | 
14 | B11 | 72 | 127000 | 0.000352 | 
